According to patent US20060171884A1 (Amgen, published 2006):
One block for each molecule: values may come before it.

How the values were obtained:
[1] = target: Rhesus Macaque MTSP-1 on 4MBr5 cells (rhesus macaque) (UniProt H9ZCT3); test: FACS on 4MBr5 monkey lung epithelial cells, antibody at 1 µg/ml
[2] = target: native human Matriptase on cells (human) (UniProt Q9Y5Y6); test: FACS on 22Rv1 cells, antibody at 1 µg/ml
[3] = target: T1, Matriptase (soluble enzyme, form not stated) (human, UniProt Q9Y5Y6 615-855, limits assumed); test: competition ELISA: 125 ng/ml biotinylated MTSP1 pre-incubated 1 hour with titrated HAI-1, then transferred to a sc95/96 coated plate, bound MTSP detected with SA-pod; competitor: plate-coated sc95/96
T1 construct: also called Matriptase-1; MT-SP1
T1 sequence: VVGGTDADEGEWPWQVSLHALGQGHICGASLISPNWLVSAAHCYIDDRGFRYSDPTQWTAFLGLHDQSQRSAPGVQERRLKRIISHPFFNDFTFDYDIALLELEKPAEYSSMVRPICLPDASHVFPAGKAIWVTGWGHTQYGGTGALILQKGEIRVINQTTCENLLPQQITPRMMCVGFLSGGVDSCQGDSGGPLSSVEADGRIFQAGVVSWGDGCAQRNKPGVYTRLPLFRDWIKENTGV

- geomean (geomean fluorescence) [1]: 5
- geomean (geomean fluorescence) [2]: 5
Molecule: IgG1 irrelevant control antibody

- IC50 (read off the curve) [3]: ~40 nM
B1: HAI-1 (soluble, as titrated in the competition assay) (other, UniProt O43278 36-465, looked up)
chain: GPPPAPPGLPAGADCLNSFTAGVPGFVLDTNASVSNGATFLESPTVRRGWDCVRACCTTQNCNLALVELQPDRGEDAIAACFLINCLYEQNFVCKFAPREGFINYLTREVYRSYRQLRTQGFGGSGIPKAWAGIDLKVQPQEPLVLKDVENTDWRLLRGDTDVRVERKDPNQVELWGLKEGTYLFQLTVTSSDHPEDTANVTVTVLSTKQTEDYCLASNKVGRCRGSFPRWYYDPTEQICKSFVYGGCLGNKNNYLREEECILACRGVQGGPLRGSSGAQATFPQGPSMERRHPVCSGTCQPTQFRCSNGCCIDSFLECDDTPNCPDASDEAACEKYTSGFDELQRIHFPSDKGHCVDLPDTGLCKESIPRWYYNPFSEHCARFTYGGCYGNKNNFEEEQQCLESCRGISKKDVFGLRREIPIPSTGSVE
